Experimental data reported in publication doi:10.1101/2025.05.19.654868.

Key:
[1] = target: S16N/R18S/N21K (NSK) crosslinked (disulfide-stabilised) HIV-1 CA hexamer (HIV-1); assay: crystal structure; crosslinked CA hexamer 12 mg/ml mixed with 1-5 mM IP6; sitting-drop vapour diffusion, 17 °C, MORPHEUS I screen
[2] = target: S16L/R18S/N21K (LSK) crosslinked (disulfide-stabilised) HIV-1 CA hexamer (HIV-1); assay: as above

| Substance | stoichiometry N [1] | stoichiometry N [2] |
| --- | --- | --- |
| S16N/R18S/N21K (NSK) crosslinked (disulfide-stabilised) HIV-1 CA hexamer (complex) | 6 |  |
| S16L/R18S/N21K (LSK) crosslinked (disulfide-stabilised) HIV-1 CA hexamer (complex) |  | 6 |
